The test addresses T1, human CD73 (huCD73) protein, antigen of the Biacore assay (human, UniProt P21589 27-547, limits assumed).
T1 construct: also called human CD73 antigen
T1 sequence (looked up): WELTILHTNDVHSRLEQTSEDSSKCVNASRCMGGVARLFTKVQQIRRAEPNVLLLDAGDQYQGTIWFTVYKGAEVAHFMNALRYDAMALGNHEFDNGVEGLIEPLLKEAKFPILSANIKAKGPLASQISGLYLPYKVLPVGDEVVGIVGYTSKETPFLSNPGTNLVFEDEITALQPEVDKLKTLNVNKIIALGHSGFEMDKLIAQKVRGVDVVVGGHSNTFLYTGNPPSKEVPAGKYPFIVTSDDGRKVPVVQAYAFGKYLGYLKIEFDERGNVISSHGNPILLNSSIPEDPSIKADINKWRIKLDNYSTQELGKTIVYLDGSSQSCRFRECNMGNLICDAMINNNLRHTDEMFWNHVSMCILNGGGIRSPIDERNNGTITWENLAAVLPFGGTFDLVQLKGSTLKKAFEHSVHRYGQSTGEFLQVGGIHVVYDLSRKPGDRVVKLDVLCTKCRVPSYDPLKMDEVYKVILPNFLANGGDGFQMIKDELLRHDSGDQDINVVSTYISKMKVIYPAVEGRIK
The test is described as follows: SPR Biacore T200; antibody captured on Protein A chip, CD73 in flow; 1:1 Langmuir. From the text: In this experiment, Biacore instrument was used to determine the affinity of the humanized anti-CD73 antibodies to be tested with human CD73 (huCD73) and monkey CD73 (cynoCD73).
A certain amount of test antibody was affinity-captured with Protein A biosensing chip (Cat. #29127556, GE), and then a certain concentration of human or monkey CD73 antigen was allowed to flow through the surface of the chip. The reaction signals were detected in real time with Biacore instrument (Biacore T200, GE) to generate a binding and dissociation curve. At the end of each cycle, after the dissociation was completed, the biosensor chip was washed and regenerated with Glycine-HCl, pH1.5 (Cat. #BR-1003-54, GE). The running buffer for the assay was 1×HBS-EP buffer solution (Cat. #BR-1001-88, GE).
The data obtained from the experiment was fitted against (1:1) Langmuir model using GE Biacore T200 Evaluation version 3.0 software, and the affinity values were obtained, as shown in Table 12 and Table 13 for details.

This passage reports Kd, koff and kon results from US20220220218A1 (JIANGSU HENGRUI MEDICINE, published 2022).

B1: Hab127.33 (antibody, V domains shown)
VH: EVQLVQSGAEVKKPGASVKVSCKASGYTFTAYFMNWVMQAPGQGLEWIGRIYHNNGDTFYSQKFKGRATLTVDKSTSTVYMELSSLRSEDTAVYYCATSYVGDWGQGTTVTVSS
VL: DIQMTQSPSSLSASVGDRVTITCRASQDIGDSLNWLQQKPGGALKRLIYATSSLDSGVPSRFSGSGSGTEYTLTISSLQPEDFATYYCLQYASFPWTFGGGTKVEIK
notes: VL3 + VH3; recombined with human heavy and light constant regions
As usually defined, the Kd is the free concentration of one partner at which half of the binding sites on the other are occupied at equilibrium, for simple one-to-one binding. A lower Kd goes with higher affinity. The koff is a measure of how fast the partners let go of each other. Read a low koff as a long-lived complex. In general, kon refers to the second-order rate constant of association. B1 yielded a Kd of 0.211 nM, a koff of 3.69e-05 s⁻¹ and a kon of 175000 M⁻¹ s⁻¹.

B2: Hab127.44 (antibody, V domains shown)
VH: EVQLVQSGAEVKKPGASVKVSCKASGYTFTAYFMNWVMQAPGQSLEWIGRIYHNNGDTFYSQKFKGRATLTVDKSTSTVYMELRSLRSEDTAVYYCATSYVGDWGQGTTVTVSS
VL: DIQMTQSPSSLSASVGDRVTITCRASQDIGDSLNWLQQKPGGALKRLIYATSSLDSGVPSRFSGSGSGSDYTLTISSLQPEDFATYYCLQYASFPWTFGGGTKVEIK
notes: VL4 + VH4; recombined with human heavy and light constant regions
Turning to B2, the Kd stood at 0.18 nM, the dissociation rate constant (koff) was 4.15e-05 s⁻¹ and the kon worked out at 230000 M⁻¹ s⁻¹.

B3: Hab127.43 (antibody, V domains shown)
VH: EVQLVQSGAEVKKPGASVKVSCKASGYTFTAYFMNWVMQAPGQGLEWIGRIYHNNGDTFYSQKFKGRATLTVDKSTSTVYMELSSLRSEDTAVYYCATSYVGDWGQGTTVTVSS
VL: DIQMTQSPSSLSASVGDRVTITCRASQDIGDSLNWLQQKPGGALKRLIYATSSLDSGVPSRFSGSGSGSDYTLTISSLQPEDFATYYCLQYASFPWTFGGGTKVEIK
notes: VL4 + VH3; recombined with human heavy and light constant regions
Molecule B3 yielded a Kd of 0.15 nM, a koff of 3.58e-05 s⁻¹ and a kon of 239000 M⁻¹ s⁻¹.

B4: Hab127.41 (antibody, V domains shown)
VH: EVQLVQSGAEVKKPGASVKVSCKASGYTFTAYFMNWVRQAPGQGLEWMGRIYHNNGDTFYSQKFKGRVTMTVDKSTSTVYMELSSLRSEDTAVYYCATSYVGDWGQGTTVTVSS
VL: DIQMTQSPSSLSASVGDRVTITCRASQDIGDSLNWLQQKPGGALKRLIYATSSLDSGVPSRFSGSGSGSDYTLTISSLQPEDFATYYCLQYASFPWTFGGGTKVEIK
notes: VL4 + VH1; recombined with human heavy and light constant regions
B4 yielded a Kd of 0.191 nM, a koff of 4.39e-05 s⁻¹ and an on-rate constant (kon) of 230000 M⁻¹ s⁻¹.

B5: Hab127.34 (antibody, V domains shown)
VH: EVQLVQSGAEVKKPGASVKVSCKASGYTFTAYFMNWVMQAPGQSLEWIGRIYHNNGDTFYSQKFKGRATLTVDKSTSTVYMELRSLRSEDTAVYYCATSYVGDWGQGTTVTVSS
VL: DIQMTQSPSSLSASVGDRVTITCRASQDIGDSLNWLQQKPGGALKRLIYATSSLDSGVPSRFSGSGSGTEYTLTISSLQPEDFATYYCLQYASFPWTFGGGTKVEIK
notes: VL3 + VH4; recombined with human heavy and light constant regions
B5 displayed a dissociation constant (Kd) of 0.22 nM, a koff of 3.58e-05 s⁻¹ and a kon of 163000 M⁻¹ s⁻¹.

B6: Hab127.42 (antibody, V domains shown)
VH: EVQLVQSGAEVKKPGASVKVSCKASGYTFTAYFMNWVMQAPGQGLEWMGRIYHNNGDTFYSQKFKGRVTMTVDKSTSTVYMELSSLRSEDTAVYYCATSYVGDWGQGTTVTVSS
VL: DIQMTQSPSSLSASVGDRVTITCRASQDIGDSLNWLQQKPGGALKRLIYATSSLDSGVPSRFSGSGSGSDYTLTISSLQPEDFATYYCLQYASFPWTFGGGTKVEIK
notes: VL4 + VH2; recombined with human heavy and light constant regions
On to B6, for which the Kd came to 0.166 nM, the koff was determined as 3.94e-05 s⁻¹ and the kon stood at 238000 M⁻¹ s⁻¹.

B7: Hab108.33 (antibody, V domains shown)
VH: EVTLKESGPVLVKPTETLTLTCTVSGFSLSSYGIQWVRQPPGKLLEWLGVIWSGGSADYNAAFISRLTISKDTSKSQVVLTMTNMDPVDTATYYCAGQYGSVWGQGTLVTVSS
VL: DIQMTQSPSSLSASVGDRVTITCRASQDIGDRLNWLQQKPGGAIKRLIYATSSLDSGVPSRFSGSGSGTEYTLTISSLQPEDFATYYCLQYAGSWTFGGGTKVEIK
notes: VL3 + VH3; full-length antibody
B7 gave a Kd of 0.481 nM, an off-rate (koff) of 0.000123 s⁻¹ and an on-rate (kon) of 255000 M⁻¹ s⁻¹.

B8: Hab108.34 (antibody, V domains shown)
VH: EVTLKQSGPGLVKPTETLTLTCTVSGFSLSSYGIQWVRQPPGKGLEWLGVIWSGGSADYNAAFISRLTISKDTSKSQVVLTMTNMDPVDTATYYCAGQYGSVWGQGTLVTVSS
VL: DIQMTQSPSSLSASVGDRVTITCRASQDIGDRLNWLQQKPGGAIKRLIYATSSLDSGVPSRFSGSGSGTEYTLTISSLQPEDFATYYCLQYAGSWTFGGGTKVEIK
notes: VL3 + VH4; full-length antibody
For the molecule B8, the Kd came to 0.999 nM, the dissociation rate constant (koff) amounted to 0.000106 s⁻¹ and the kon was determined as 106000 M⁻¹ s⁻¹.

B9: Hab108.45 (antibody, V domains shown)
VH: EVTLKESGPVLVKPTETLTLTCTVSGFSLKSYGIQWVRQPPGKLLEWLGVIWSGGSADYNAAFISRLTISKDTSKSQVVLTMTNMDPVDTATYYCAGQYGSVWGQGTLVTVSS
VL: DIQMTQSPSSLSASVGDRVTITCRASQDIGDRLNWLQQKPGGAIKRLIYATSSLDSGVPSRFSGSGSGSEYTLTISSLQPEDFADYYCLQYAGSWTFGGGTKVEIK
notes: VL4 + VH5; full-length antibody
B9 gave a Kd of 0.253 nM, a koff of 7.38e-05 s⁻¹ and an on-rate (kon) of 292000 M⁻¹ s⁻¹.

B10: Hab108.15 (antibody, V domains shown)
VH: EVTLKESGPVLVKPTETLTLTCTVSGFSLKSYGIQWVRQPPGKLLEWLGVIWSGGSADYNAAFISRLTISKDTSKSQVVLTMTNMDPVDTATYYCAGQYGSVWGQGTLVTVSS
VL: DIQMTQSPSSLSASVGDRVTITCRASQDIGDRLNWYQQKPGKAPKRLIYATSSLDSGVPSRFSGSGSGTEFTLTISSLQPEDFATYYCLQYAGSWTFGGGTKVEIK
notes: VL1 + VH5; full-length antibody
With B10, the Kd came to 0.485 nM, the koff came out at 0.000121 s⁻¹ and the kon came to 249000 M⁻¹ s⁻¹.

B11: Hab108.25 (antibody, V domains shown)
VH: EVTLKESGPVLVKPTETLTLTCTVSGFSLKSYGIQWVRQPPGKLLEWLGVIWSGGSADYNAAFISRLTISKDTSKSQVVLTMTNMDPVDTATYYCAGQYGSVWGQGTLVTVSS
VL: DIQMTQSPSSLSASVGDRVTITCRASQDIGDRLNWLQQKPGKAIKRLIYATSSLDSGVPSRFSGSGSGTEYTLTISSLQPEDFATYYCLQYAGSWTFGGGTKVEIK
notes: VL2 + VH5; full-length antibody
In the case of B11, the Kd was 0.349 nM, the koff came out at 0.000101 s⁻¹ and the kon came to 290000 M⁻¹ s⁻¹.

B12: Hab108.23 (antibody, V domains shown)
VH: EVTLKESGPVLVKPTETLTLTCTVSGFSLSSYGIQWVRQPPGKLLEWLGVIWSGGSADYNAAFISRLTISKDTSKSQVVLTMTNMDPVDTATYYCAGQYGSVWGQGTLVTVSS
VL: DIQMTQSPSSLSASVGDRVTITCRASQDIGDRLNWLQQKPGKAIKRLIYATSSLDSGVPSRFSGSGSGTEYTLTISSLQPEDFATYYCLQYAGSWTFGGGTKVEIK
notes: VL2 + VH3; full-length antibody
For B12, the Kd came to 0.913 nM, the koff was 0.000187 s⁻¹ and the kon is 205000 M⁻¹ s⁻¹.

B13: Hab108.35 (antibody, V domains shown)
VH: EVTLKESGPVLVKPTETLTLTCTVSGFSLKSYGIQWVRQPPGKLLEWLGVIWSGGSADYNAAFISRLTISKDTSKSQVVLTMTNMDPVDTATYYCAGQYGSVWGQGTLVTVSS
VL: DIQMTQSPSSLSASVGDRVTITCRASQDIGDRLNWLQQKPGGAIKRLIYATSSLDSGVPSRFSGSGSGTEYTLTISSLQPEDFATYYCLQYAGSWTFGGGTKVEIK
notes: VL3 + VH5; full-length antibody
B13 had a Kd of 0.28 nM, a koff of 8.09e-05 s⁻¹ and a kon of 290000 M⁻¹ s⁻¹.

B14: CH108 (antibody, V domains shown)
VH: QVQLKQSGPGLVQPSQSLSITCTVFGFSLKSYGIQWVRQSPGKGLEWLGVIWSGGSADYNAAFISRLSISKDNSKSQVFFKMNSLQGDDTAIYYCAGQYGSVWGQGTSVTVSS
VL: DIQMTQSPSSLSASLGERVSLTCRASQDIGDRLNWLQQEPDGTIKRLIYATSSLDSGVPKRFSGSRSGSDYSLTISSLESEDFVDYYCLQYAGSWTFGGGTKLEIK
notes: also called chimeric antibody of mab108
B14 returned an equilibrium dissociation constant (Kd) of 0.365 nM, a koff of 5.82e-05 s⁻¹ and a kon of 160000 M⁻¹ s⁻¹.

B15: CH110 (antibody, V domains shown)
VH: QVQLQQSGAELARPGASVQMSCKASGYIFTSYTMHWVKQRPGQGLEWIGYINPNSFYIEYNQKFKDKATLTADTSSSTAYMQLSSLTSEDSAVYYCARGDYDLFYDMDNWGQGTSVTVSS
VL: DIQMTQSPSSLSASLGERVSLTCRASQDIGNSLNWLQQEPDGTIKRLIYATFRLDSGVPKRFSGSRSGSDYSLTISSLESEDFVDYYCQQYASFPWTFGGGTKLEIK
notes: also called chimeric antibody of mab110
In the case of B15, the Kd was 0.265 nM, the koff was determined as 0.000147 s⁻¹ and the kon was 556000 M⁻¹ s⁻¹.

B16: CH127 (antibody, V domains shown)
VH: EVQLQQSGPELVKPGESVKISCKASGYSFTAYFMNWVMQSHRKSLEWIGRIYHNNGDTFYSQKFKGKATLTVDKSSNTVHMELRSLTSEDSAVYFCATSYVGDWGQGTTLTVSS
VL: DIQMTQSPSSLSASLGERVSLTCRASQDIGDSLNWLQQAPDGTLKRLIYATSSLDSGVPRRFSGSRSGSDYSLTISSLESEDFVDYYCLQYASFPWTFGGGTKLEIK
notes: also called chimeric antibody of mab127
Regarding B16, the Kd was 0.139 nM, the off-rate (koff) came out at 3.31e-05 s⁻¹ and the kon turned out to be 239000 M⁻¹ s⁻¹.
